# Assay: label from the status in PepcDB records
row,Sequence,protein production
1,MAQRKNAKSSGNSSSSGSGSGSTSAGSSSPGARRETKHGGHKNGRKGGLSGTSFFTWFMVIALLGVWTSVAVVWFDLVDYEEVLGKLGIYDADGDGDFDVDDAKVLLGLKERSTSEPAVPPEEAEPHTEPEEQVPVEAEPQNIEDEAKEQIQSLLHEMVHAEHVEGEDLQQEDGPTGEPQQEDDEFLMATDVDDRFETLEPEVSHEETEHSYHVEETVSQDCNQDMEEMMSEQENPDSSEPVVEDERLHHDTDDVTYQVYEEQAVYEPLENEGIEITEVTAPPEDNPVEDSQVIVEEVSIFPVEEQQEVPPETNRKTDDPEQKAKVKKKKPKLLNKFDKTIKAELDAAEKLRKRGKIEEAVNAFKELVRKYPQSPRARYGKAQCEDDLAEKRRSNEVLRGAIETYQEVASLPDVPADLLKLSLKRRSDRQQFLGHMRGSLLTLQRLVQLFPNDTSLKNDLGVGYLLIGDNDNAKKVYEEVLSVTPNDGFAKVHYGFILKAQNKIAESIPYLKEGIESGDPGTDDGRFYFHLGDAMQRVGNKEAYKWYELGHKRGHFASVWQRSLYNVNGLKAQPWWTPKETGYTELVKSLERNWKLIRDEGLAVMDKAKGLFLPEDENLREKGDWSQFTLWQQGRRNENACKGAPKTCTLLEKFPETTGCRRGQIKYSIMHPGTHVWPHTGPTNCRLRMHLGLVIPKEGCKIRCANETRTWEEGKVLIFDDSFEHEVWQDASSFRLIFIVDVWHPELTPQQRRSLPAI,failed
2,REHDFDDLKFEHFLASAAGAFPAFLEVAEKRIIGEGVLRAVKESMRWHRAENVHFGAFLLLVPLISSWDAGGMVDIAEAARNRLRRTDFRDSLSVLEAFRLSNARVVEAGELNLKDRKTEEEIAQKKINLYEWMKMAPEENLIARELVDGFKISIEGAKFLLSFGNSGKAVVELYYHLLSKFPDPLVIAKMGREYAEKITEWAEKARTEEERKELDEKLLKDGANPGTIADLTASSIFLALAEGWR,not failed
3,MTKPQGAVAEKATPAVPKPQKVRVIVEFNKESILDYATEQKKTVAQLNQADVEKKLQSIKQEQDKVLKNIEKSVHFDSSKVKRYDAIINGVALDIQAQEIEKLKTIADVRRVYVSQEYVQTKPLLSSSGQLIGLPEVWNNSQYKGEGTVVAVIDSGVDFKHQALKIKEPNRAKYNKTSIEKLIHEKNLKGKFYSEKVPYGYNYYDYNDNLKDSYGVMHGMHVTGIVGANDDNQKLYGVAPNAQILAMKVFSDDQQNPTTFTDVWLKALDDAILLKADVVNMSLGTPAGFVHEGKDYPELEVIARACKAGIVIAVAAGNEGNITDGNTYGVKPLAENYDTALIANPALDDNTLAVASMENLKKHAHVLKFKDKKSGTEVTEVINLHVAPNASKTIIGLAVDLGAGAPSELSKHFDLSGKIAMLEIPEDNKSNGFLEKVQAITKLNPAAILLYNNAKVKDDLGSQLLVESEAAKFNIARITRSTYNNIKNNSNKIITILTERQAIDNSLAGQLSSYSSWGPTPDLRLKPEITAPGGHIFSTVEDNQYADKSGTSMAAPQVAGAAAVLKQYITDKKIPVDNAADFIKLLLMNTAQPIINKQSKDGKTPYFVRQQGSGAMNLAKALVTTVVATVTGTNDNNADGKLELRELKEKKFKARILLRNFGKTNKTYIISSEAIADPVDEKGFRTQNSEHLVSKKADAVTRKVTVEAGKTLAVDLDVDYSDAEALTRNNFLEGYLNLKDTEGVADLHLPFLGFYGSWTEQKAIDAFEGISEIGNGDKKRRVQFYVNKETNKTSSTFTTNGMLSLPIYNNTVFFSPNSPFYDKAGVRIAALRNMEYVQYSIIDPDTNKEVRVLGRSHDVRKLYRLDYRNSFAMMPDSIWDGKIKD,failed
4,MLLTQYEKYKRGFKFDHVWPILKGIEKFANDNMMTPASSPSPGMNSIDLNMDSEDANFSLSSRPMGLKKTKLKQLLEQNDKLIKAITKGTSERNEIQRQKIEVDRMKEENKILFADLNSISDPSSRAYIENERKRILEKRAQTNQHEEDGEGSQYHGSQYRASHYQESPSHGKQVQGEPDQGEDQRSPNNQEDFTQYYNYLSGTENIFP,failed
5,MDKLNAISIFCKVIETQSFTLAAKQQNISVAMASKLVSQLEEHLKTRLLQRTTRKIMPTEAGMMYYQRCQGILLDLDEADSSITQLTSSLQGNLLISVPRDFGLLFIAPNLPTFMAKHPHLHIEVEFNDKKIDLLSEGYDLALRIGYMEDSSLVSRKIGTTTVHFAASPNYLETNGIPQTPDDLEHHNGLLYKNAMNQVNWVGSRINQTQRFKIQSKVVSNSGFALLNMAKAGLGIANLPKFILGRAFEKGELIEILPEYKQQKLEIHVVYPNRRHLPIKVTGISLNF,failed
6,LFGVTSELSKDGRERIYRVEGQLFYASVEDFMAAFDFREALDRVVIDVSRAHIWDISSVQALDMAVLKFRREGAEVRIVGMNEASETMVDRLAIHD,not failed
7,MKTDWSHYLSVEMESTISNELSILCGAEVAFLGYSCSGKPYTFGSPSFQAVAERFLNREASSSLQRSVMNAHQQAKIQELCKVYNRMVEEAKTEEAKVKKAAALAETMPVDEDAWWKVDPKEVEDHEEAKKIMEKCEGLYEKLCNEAAARIQRGDAENNNK,failed
8,MSLGTIIIVDDNKGVLTAVQLLLKNHFSKVITLSSPVSLSTVLREENPEVVLLDMNFTSGINNGNEGLFWLHEIKRQYRDLPVVLFTAYADIDLAVRGIKEGASDFVVKPWDNQKLLETLLNAASQAKDGKKEGHHHHHH,not failed
9,MNNFVSELQSYFASKYPFLSANIPRQQQLLGDSWSQEFDGELIKHFGTIEELRTAADGYAKFAMDSLLLTAKFQKTKDYDNKTYAECASEVYQSESYMHSLYLPGILLSHYLWKHHYAMYQFYKSIVVPVLPKSGLFIDVGVGTGFYSRNLLRDSQMTGIGCDMSPHSLSYTRSTLSKFGTVDKYSFCLCDYYHFNQYFQSTADFILSIEVLEHLEDPMKMLESLYKSLKPGGLGLISAAVNAPNADHIYLYRSCEDVRHQLIKAGFEIRHDTCDEAYEARTIGEVVPVNYGALVCKPS,failed
10,MKRWTTLLIVICMLGITIPAMGAMSISKMRQNTRFLTDRMAYELKLTPRQYNDVYEVNYDFINNVRYLMDDVVRGYDYALERYYDFLDVRNDDLRWILSSAQYRRFMRAEHFYRPIYAHENKWHFRIYLVYNNVNFFYYGKPHHYASYCGGHYRTHFNNVSYYKTHYRDHYRHDVYDGHYRIRHDRMTYDMHRRRDFNIAVRPPQKEHHRPATPPQTRPNRPQIHPDRPSGDHRRPSVPQARPDRPKKDQNNKHDGRPSRRGQNSQVDKDRHENRRITPSGRDVRRGNGKKEKDSDRSGGSNKSNSKERTAVRMRTV,failed
11,MNGGTFTTGKEKERAGIYFNFKTTAQERVSLSERGTVALPVASSWGEAKTFVSISSVEDLNKKVGLSIDDPSLLLLREAKKNAKTVLMYRLTEGVRASADIAEGVKATAVYGGTKGNDIIIRINQNVLDANSFDVTTYMDESEVDKQTVKKAEELTANGYVTFTGTGDLSSTIPLTGSEGDTAAETLNASAGIRLSGGTDKAPVNSDYTDFLAAAETESFDVIALPVAEGDQLKATFAAFIKRLRDGQGQKVQGVTANYAGDYEGIINVTEGVLLEDGTEVTPDKATAWVAGASAGATFNQSLTFVEYEGAVDVLHRLDHDTIVERLGKGEFLFTFDARDKSVSVEKDINSLVTFTAEKNKKFAKNKIVRVLDAVNNDLTRELKALIKSRKGSGSDIPASEDGLQYVKTMITQYMTTLQDAGGITGFDSDEDITISMNEDRDGFLIDLLYSLSTQQKNSTLMWRLEHHHHHH,not failed
12,MSNMEKHLFNLKFAAKELSRSAKKCDKEEKAEKAKIKKAIQKGNMEVARIHAENAIRQKNQAVNFLRMSARVDAVAARVQTAVTMGKVTKSMAGVVKSMDATLKTMNLEKISALMDKFEHQFETLDVQTQQMEDTMSSTTTLTTPQNQVDMLLQEMADEAGLDLNMELPQGQTGSVGTSVASAEQDELSQRLARLRDQV,not failed
13,MATDTAERRIAHVRGVTVTAIACLAGVAAAVVSAAVADGAGDTLGLYVLVGGIIVQFPLLRVLEMAGLQLDVDDFGAKDYLYIAFMTFAMWFVCWTVLLTTGASV,failed
14,MQCRDHSTHLVSLPNSQGPAVPFTMRRPVRPPSVPMSRYRTAPLATTELPPGIPFIIGNELAERFSYYGMRAILVVFMTRYLVDAAGNPAPMQEGEAKGYFHLFVSLTYFTPFLGALLADGVLGKYRTIIALSLVYCLGHFALALDDTRTGLLLGQSLIALGAGGIKPCVSAHVGDQFGQSNRHLLSQIYGWFYLAINLGAFVSMLLIPWLLERHGASVAFAVPGLLMLIATLVFWAGRHRFVHIPPGGMRFIREAWSSEGRRGVGRLIGVFLFITMFWALFDQTGSSWVLQSQRMDRVLFGHAILPSQIQAANPLLIVLLTPFFHHLLYPALARLIPMTALNKIALGLSFTVLAFALAAWIQMRIDTGLKPSIGWQLLAYLLLTSAEVMVSITSLEFAYTQAPLTMKSFVMALYLGAVALGNLFTALVNFWIERSKTPWLDGAGYFWFFTGLMLATALGFFAYSRNYREELHLQTER,failed
15,MEDAAAPGRTEGVLERQGAPPAAGQGGALVELTPTPGGLALVSPYHTHRAGDPLDLVALAEQVQKADEFIRANATNKLTVIAEQIQHLQEQARKVLEDAHRDANLHHVACNIVKKPGNIYYLYKRESGQQYFSIISPKEWGTSCPHDFLGAYKLQHDLSWTPYEDIEKQDAKISMMDMLLSQSVALPPCTEPNFQGLTH,failed
16,MERGVDNWKVDCKCGTKDDDGERMLACDGCGVWHHTRCIGINNADALPSKFLCFRCIEL,not failed
17,MAQRERKAGVVKRDKADKWNHVETARYFRDLQENEVRTMHYLGLAYVVLSRRPNLQLKVPLSTQNYEDGAIVGAGERGGYALQLLFTCAANYPLARPLVEIVEKRNVSDAFEQVLRKEIDLILEEHLGLQMIVPVVTRLQITLNTEMKRQRF,failed
18,MSGSQPGRDKAIPAPRPTADIWENPDQLPADRGDLIKAKLTPAVITIFLRNNLKRIALLASALFVLGMIVLWLLPVRYAATALVMVDPREQRVTTDQEVLPGIGQDAAALQSLIEIAKSDGFLRPLVEKLKVAEDHEIAGSETDPARVLDRFRKHLEIARRGLTYVIEMTFVAKDPQRAAYYANAVAEAFVASQTQVRAVAADEAAGWLSSRLKTLNEKLRASEDAVAAFKTQYRIVDAGRESTTRQLRVTELTQQVSAARLRTEEAKNRYEQAQRDLKSDVDGSTGSKSDLVSVLRTQRTQLNDQIAQKRAVLGDRHPELVIAYNQLAELNRQIEAERKRNIVSAKSDYDAMRDQLKALEQQLKSLETEMLGDDQAAVKLKELQREANANRAIYEQFLERYNTTNQQRLLQATQTKVASFATPPTRPTRPPLLVLIAAIAVASILVSIAVVAMLASLSNQPEQADNSGPPEGATAPVPVEAAATSAAEPIEEKKPAADYSNLPIVLRIPDLSGARTLGGKLAMLGGERRLDHYVVGLLDAIGVKPSQRGMVVLVTSVDPGAGKSSVARALNAIAVDRGMLSVVIEVAGQARSVPAAPSNRAEPDGGALVRVLKTTIPSVVRLIASEPDVSAQNDVRSEFDLILIDAPALATQTEVAEIAAHTDLNLLVIDSAVTEAGAALEAQALLSRRGHAPAGVVVNKAGAQPAPAAVPAARLAS,failed
19,EELQALVDNIPAAIYHLDVSGQATIRFRPPAFLKTLVSEHAGTTRLNTLSMIHHDDRHMLSNAYSKLREAKHSLTLVYRIVTPEGKLHWIEDHMRSSFSDDGLFSGIDGILCEVT,not failed
20,MMQDCEKLLDEPGRLAAVRRYAVLDTAPEEPFDKLTRLVCNVLEVPYAAVTLIDADRQWFKSLVGLSGSEGPRHESFCTHTIKTRDPMIVPDATLDPRFRDSPLVTGAAGIRSYLGVPLETPDGYNLGALCAVDTAPRTFSTSQIEIMKSFASLVLDELELRQIALSDALTGAMTRRGWLAAVEKEMARGARQGTQAAIVLFDVDHFKAINDTHGHAVGDAVLQALTRRCLLHLGPADALGRIGGEEFAVLVPDAGLPEAMELAERLRRSFSDAPIEVAGQALRVTASFGVQGLDGDTGNAGSWLAAADRRLYEAKAAGRNRCHGG,failed
21,MITIKKQEIVKLEDVLHLYQAVGWTNYTHQTEMLEQALSHSLVIYLALDGDAVVGLIRLVGDGFSSVFVQDLIVLPSYQRQGIGSSLMKEALGNFKEAYQVQLATEETEKNVGFYRSMGFEILSTYDCTGMIWINREK,not failed
